Assay results from the nanobody polyreactivity screen of Harvey et al. (2022).

Assay: yeast display, Sf9 membrane polyspecificity reagent, FACS + sequencing; frameworks hold sequencing errors
Summary of the method: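 After 36–48 hours of galactose induction, yeast (Saccharomyces cerevisiae BJ5465) displaying a synthetic nanobody library were stained at 4 °C for 1 hour with 10% biotinylated, detergent-solubilized Sf9 membrane reagent. Streptavidin microbeads enriched the stained cells before FACS sorting into low and high (top ~1%) gates on anti-HA and streptavidin fluorescence. Each clone's polyreactivity label reflects its gate of origin.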

Row | Sequence | polyreactivity (PSR sort gate)
1 | QVQLVESGGGLVQAGGRLRLSCAASGLICNANPMGWYRQAPGKEREFVAAITTSGGKTYYADSVKGRFTISRDNAKYTVYLQMNSLKPEDTAVYYCAATDLYFWYPYWFAFEYDYWGLGTQVTVSS | high polyreactivity
2 | QVQLVESGGGLVQAGGSLRLSCAASGLIFSWNAMGWYRQAPGKERELVASISYSGGRTYYADSVKGRFTISRDNAKNTVYLQMNSLKPEDTAVYYCAADTNATTDPEMDYWGQGTQVTVSS | low polyreactivity
3 | QVQLVESGGGLVQAGGSLRLSCAASGSTFRRNAMGWYRQAPGKERELVASITSGGSTYYADSVKGRFTISRDNAKNTVYLQMNSLKPEDTAVYYCAVVWRGGYRWPYEYWGQGTQVTVSS | low polyreactivity
4 | QVQLVESGGGLVQAGGSLRLSCAASGSIFVRNTMGWYRQAPGKERELVATISSGGRTYYADSVKGRFTISRDNAKNTVYLQMNSLKPEETAVYYCAAGYSYAQYSYPFLSFAFGYWGQGTQVTVSS | high polyreactivity
5 | QVQLVESGGGLVQAGGSLRLSCAASGLTLRCNTMGWYRQAPGKERELVADITASAGSTYYADSVKGRFTISRDNAKNTVYLQMISLKPEDTAVYYCAARVYIAYISMDHWGQGTQVTVSS | low polyreactivity
6 | QVQLVESGGGLVQAGGSLRLSCAASGSTLAPYVKGWYIQAPGTERELVAVISTRTGRTYYADSVKGRFTISRDNAKNTVSLQMNSLKPEDTAVYYCAAAYGWSWYRYDYWGQGTQVTVSS | high polyreactivity
7 | QVQLVESGGGLVQAGGSLRLSCAASGFTFYVNAMGWYRQAPGKERELVAAISSSGTRTYYADSVKGRFTISRDKAKNTVYLQMNSLKPEDTAVYYCAARGQAYSGDRMYYWGQGTQVTVSS | high polyreactivity
8 | QVQLHESGGGLVQAGGSLRQSCAASGTISYAGPMGWYRKAPGKEREFVAGIGVGSNTNYADSVKGRYTIIRDNAKNTVYLQMNSLKPEDTAVNYCAVGGYAPLGRPYWGLGTQVTVSS | low polyreactivity
9 | QVQLVESGGGLVQAGGSLRLSCAASGFTFKFYAMGWYRQAPGKERELVAAISWSGGSTYYADSVKGRFTISRDNAKNTVYLQMNSLKPEDTAVYYFAKRGGRQTYYYWGLGTQVTVSS | high polyreactivity
10 | QVQLVESGGGLVQAGGSLRLSCAASGRTFFYYAMGWYRQAPGKERELVAAISTNGGSTYYADSVKGRFTISRDNAKNTVYLQMNSMKPDDTAVYYCNTYAKPHRSGGGLGGHYYWGQGTQVTVSS | low polyreactivity
11 | QVQLVESGGGLVQAGGSLRLSCAASGSIFARNAMGWYRQAPGKERELVAAISWSGGRTYYADSVKGRFTISRDNAKNTVYLQMNSLKPEDTAVYYCATDTWWGQGTQVTVSS | high polyreactivity
12 | QVQLVESGGGLVQAGGSLRLSCAASGFTFVRNTMGWYRQATGKERELVAAISRSGGSTYYADSVKGRFTISRDNAKNTVYFKIYSLKPEDSAVYYCNAYRYVHYDWGHGTQVTVSS | high polyreactivity
13 | QVQLVESGGGLVQAGGSLRLSCAASGSTFDYYAMGWYRQAPGKERELVAAITSTGRTYYADSVKGRFTISRDNAKNTVYLQMNSLKPEDTAVYYCAADLPWGPLFDYWGQGTQVTVSS | low polyreactivity
14 | QVQLVESGGGLVQAGGSLRLSCAASGRTFYVKVMGWYRQEPGKERELVAVISRSDGSTTYADSVKGRFTISRDNAKNTVYLQMNSLKPEDTAVYYCNTDLPLGSGVLPDWELFDYWGQGTQVTVSS | low polyreactivity
15 | QVQLVESGGGLVQAGGSLRLSCAASGRTFYIYAMGWYRPAPGKERELVAAITSGRSTSYADSVKGRFTISRDNAKNTVYLQMNSLKPEDTAVYYCAADQYTYWFGYDYWGQGTQVTVSS | low polyreactivity
16 | QVQLVESGGGLVQAGGSLRLSCAASGFTFNKYAMGCYRQAPGKERELVAAISGSGGRTYYADSVKGRFTISRDNAKNTVYLQMNSLKPEDTAVYYCAAQRSVKVDYWGQGTQVTVSS | high polyreactivity
17 | QVQLVESGGGLVQAGGSLRLSCAASGSIFRNYAMGWYRKAPGKERELVADSTYYADSVKGRFTISRDNAKNTVYLQMNSLKPEDTAVYYCNTVYATRYDYWGQGTQVTVSS | high polyreactivity
